Article PMC7795263, “Chaperone-Assisted Mitotic Actin Remodeling by BAG3 and HSPB8 Involves the Deacetylase HDAC6 and Its Substrate Cortactin” (International Journal of Molecular Sciences, 2020)

Biological target: T1, myc-cortactin (UniProt Q60598 1-546)
T1 construct: cortactin, myc-tagged plasmid, gift from Dr Zhan (Holland Laboratory, American Red Cross); human cortactin would be Q14247; The PLA used an anti-cortactin antibody, which may also detect endogenous human cortactin of HeLa cells; source: HeLa (parental), transfected (Lipofectamine 2000), in fixed cells
T1 sequence (Q60598 whole entry): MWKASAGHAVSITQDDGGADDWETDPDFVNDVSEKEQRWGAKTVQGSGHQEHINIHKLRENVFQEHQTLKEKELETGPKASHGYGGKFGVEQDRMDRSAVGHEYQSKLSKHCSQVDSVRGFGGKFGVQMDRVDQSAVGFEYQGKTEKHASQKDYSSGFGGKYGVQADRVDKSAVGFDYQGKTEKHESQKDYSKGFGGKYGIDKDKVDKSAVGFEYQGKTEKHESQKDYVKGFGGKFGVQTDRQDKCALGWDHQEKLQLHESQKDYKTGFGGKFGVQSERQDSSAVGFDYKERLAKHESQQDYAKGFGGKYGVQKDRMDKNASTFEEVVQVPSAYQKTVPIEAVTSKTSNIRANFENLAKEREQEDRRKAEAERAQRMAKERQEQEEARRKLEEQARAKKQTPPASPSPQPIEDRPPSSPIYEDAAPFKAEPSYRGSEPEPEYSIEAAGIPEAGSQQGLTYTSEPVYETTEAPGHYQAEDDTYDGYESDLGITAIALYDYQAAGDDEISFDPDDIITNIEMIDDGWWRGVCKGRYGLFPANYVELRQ
Experiment: proximity ligation; Duolink in situ PLA with anti-GFP and anti-cortactin antibodies in fixed HeLa cells cotransfected with GFP-HDAC6 and myc-cortactin; asynchronous or synchronized in mitosis (double thymidine block, release 8-9 h); siCtl or siBAG3; PLA foci per cell counted by confocal microscopy
Conditions: partners not purified

B1: GFP-HDAC6 (histone deacetylase 6, WT) (enzyme, UniProt Q9UBN7 1-1215, looked up)
chain: MTSTGQDSTTTRQRRSRQNPQSPPQDSSVTSKRNIKKGAVPRSIPNLAEVKKKGKMKKLGQAMEEDLIVGLQGMDLNLEAEALAGTGLVLDEQLNEFHCLWDDSFPEGPERLHAIKEQLIQEGLLDRCVSFQARFAEKEELMLVHSLEYIDLMETTQYMNEGELRVLADTYDSVYLHPNSYSCACLASGSVLRLVDAVLGAEIRNGMAIIRPPGHHAQHSLMDGYCMFNHVAVAARYAQQKHRIRRVLIVDWDVHHGQGTQFTFDQDPSVLYFSIHRYEQGRFWPHLKASNWSTTGFGQGQGYTINVPWNQVGMRDADYIAAFLHVLLPVALEFQPQLVLVAAGFDALQGDPKGEMAATPAGFAQLTHLLMGLAGGKLILSLEGGYNLRALAEGVSASLHTLLGDPCPMLESPGAPCRSAQASVSCALEALEPFWEVLVRSTETVERDNMEEDNVEESEEEGPWEPPVLPILTWPVLQSRTGLVYDQNMMNHCNLWDSHHPEVPQRILRIMCRLEELGLAGRCLTLTPRPATEAELLTCHSAEYVGHLRATEKMKTRELHRESSNFDSIYICPSTFACAQLATGAACRLVEAVLSGEVLNGAAVVRPPGHHAEQDAACGFCFFNSVAVAARHAQTISGHALRILIVDWDVHHGNGTQHMFEDDPSVLYVSLHRYDHGTFFPMGDEGASSQIGRAAGTGFTVNVAWNGPRMGDADYLAAWHRLVLPIAYEFNPELVLVSAGFDAARGDPLGGCQVSPEGYAHLTHLLMGLASGRIILILEGGYNLTSISESMAACTRSLLGDPPPLLTLPRPPLSGALASITETIQVHRRYWRSLRVMKVEDREGPSSSKLVTKKAPQPAKPRLAERMTTREKKVLEAGMGKVTSASFGEESTPGQTNSETAVVALTQDQPSEAATGGATLAQTISEAAIGGAMLGQTTSEEAVGGATPDQTTSEETVGGAILDQTTSEDAVGGATLGQTTSEEAVGGATLAQTTSEAAMEGATLDQTTSEEAPGGTELIQTPLASSTDHQTPPTSPVQGTTPQISPSTLIGSLRTLELGSESQGASESQAPGEENLLGEAAGGQDMADSMLMQGSRGLTDQAIFYAVTPLPWCPHLVAVCPIPAAGLDVTQPCGDCGTIQENWVCLSCYQVYCGRYINGHMLQHHGNSGHPLVLSYIDLSAWCYYCQAYVHHQALLDVKNIAHQNKFGEDMPHPH
notes: histone deacetylase 6 (HDAC6), wild type, expressed from peGFP.N1-HDAC6 WT (Addgene 36188); The pEGFP-N1 vector usually places GFP at the C-terminus of the insert (surmised); The Addgene 36188 insert is recalled to be human HDAC6; also called peGFP.N1-HDAC6 WT; source: HeLa (parental), transfected (Lipofectamine 2000), in fixed cells
Question: B1 was tested. Which “fold change of PLA foci per cell, siBAG3 mitotic cells against siCtl mitotic cells” value did it give?
Answer: ~2 fold
